Measurements from the nanobody polyreactivity screen of Harvey et al. (2022).

Experiment: yeast display, Sf9 membrane polyspecificity reagent, FACS + sequencing; frameworks hold sequencing errors
In short: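 A synthetic nanobody library was expressed on Saccharomyces cerevisiae BJ5465 by galactose induction for 36–48 hours. The library was stained for 1 hour at 4 °C with 10% biotinylated, detergent-solubilized Sf9 membrane reagent and enriched with streptavidin microbeads before FACS. Low and high (top ~1%) gates were set on anti-HA fluorescence for expression and streptavidin fluorescence for reagent binding, and each polyreactivity label reflects the gate of origin.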

Sequence	polyreactivity (PSR sort gate)
QVQLVESGGGLVQAGGSLRIRCAASGSTFSEYDMGWYRQAPGKERELVAAITTSGGSTYYADSVKGRFTISSDNAKNTVYLQMNSLKPEDTAVYYCAADSIGNYLLYDYWGQGTQVSVSS	low polyreactivity
QVQLVESGGGLVQAGGSLRIRCAATGFIFLDYAMGWYRQAPGKERELVAAISSRGARTYYADSVKGRFTISRDNAKNTVYLQMNSLKPEDTAVYYCAARGPLDRYGYWGQGTQVTVSS	high polyreactivity
QVQLVESGGGLVQAGGSLRIRSAASGGIIWWNAMGWYIQAPGKERELVAAISRSGGTTYYADSVKGRFTISRDNEKNSVYLQMNSLKPEDTAVYFCAAQYRYPGFNYWGQGSQVTVSS	high polyreactivity
QVQLVESGGGLVQAGGSLRISCAASAITFEPYAMGWYRQAPGTEREFVAAISRSGGSTYYADSVKGRFTISRDNAKNTVYLQMNSLKPEDTAVYYCAADSWIGPDYGHDYRGQGTQVTVSS	high polyreactivity
QVQLVESGGGLVQAGGSLRISCAASARTLKRNAMGWYRQAPGKERELVAAISFRVTNTYYADSVKGRFTISRDNAKNTVYLQMYSLKPEDTAVYYCAVPDSRFYSPRRVSPHDYWGQGTQVTVSS	high polyreactivity
QVQLVESGGGLVQAGGSLRISCAASESIFPVYAMGWYRQAPGKERELVATITDGGGDTYYADSLKGRFTISRDNAKNTVYLQMNSLKPEDTAVYYCAARSMPEWSAYWYDYWGQGTQVTVSS	low polyreactivity
QVQLVESGGGLVQAGGSLRISCAASGATFYYYAMGWYRQAPGKERELVASTYYADSVKGRFSISRDNAKNTVYLQMKSLKPEDTAVYYCAKRFKATYEYDYWGQGTQVTVSS	low polyreactivity
QVQLVESGGGLVQAGGSLRISCAASGFIIYGYVMGWYRQAPGKERELVAAINSSSGRTYYADSVKGRFTISRDNAKNTVYLQMNSLKPEDTAVYYCAAYYYCSYDGTPYDYWGQGTQVTVSS	low polyreactivity
QVQLVESGGGLVQAGGSLRISCAASGFTFPLYAMGWYRQAPGKERELVAAINYRGSSTYYADSVKGRFTISRDNAKNTVYLHMNSLKPEYTAVYYCNAADPVWNQVYWGSNEYDYWGQGTQVTVSS	high polyreactivity
QVQLVESGGGLVQAGGSLRISCAASGFTFRSYSMGWYRQAPGKERELVAAITSTGGRTYYADSVKGRFTISRDNAKNTVYLQMNILNPEDTAVYYWAAGRKHFGPVHFGYWGQGTQVTVSW	high polyreactivity
QVQLVESGGGLVQAGGSLRISCAASGFTFRYNAMGWYRQAPVKERELVATISSRGGSTNYADSVKGRFTISRDNAKNTVYLLMNSLKPEDTAVYYCNNVRYRDLKRYDYWGQGTQVTVSS	high polyreactivity
QVQLVESGGGLVQAGGSLRISCAASGFTLSYYAMGWYRQAPGKERELVASISAIGGITYYADSVKGRFTISRDNAKNTVYLQMNSLKPEDTAVYYCARQGRRYRRFDSWGQGTQVTVSS	high polyreactivity
QVQLVESGGGLVQAGGSLRISCAASGFTVWGYAMGWYRQAPGKERELVAGITTRGGSTYYADSVKGRFTISRDNAKNTVYLQMNSLKPEDTAVYYCNVVSSTRTYRYDYWGQGTQVTVSS	high polyreactivity
QVQLVESGGGLVQAGGSLRISCAASGIILGYYPMGWYRQAPGKERELVAAINWSGASTYYADSVKGRFTISRDNAKNTVYLQMNCLKPEDTAVYDCNAVGYYYRGTGEYDYWGQGTQVTVSS	high polyreactivity
QVQLVESGGGLVQAGGSLRISCAASGITFDQNAMGWYRQAPGKEREFVGAITRGSSTNYADSVKGRFTISRDNAKNTVYLQMNSLKPEETAVYYCNADGYARFRTYYCRDTREYDYWGQGTQVTVSS	low polyreactivity
QVQLVESGGGLVQAGGSLRISCAASGITFLEYAMGWYRQAPGKERELVATINSGGSTNYADSVKGRFTISRDNAKNTVYLQMNSLKQEDNAVYYCSADYGSDYTKGDYWGQGTQVTVSS	low polyreactivity
QVQLVESGGGLVQAGGSLRISCAASGITFSYYAMGWYIQAPGKERELVAAINSGGGSTYYADSVKGRFTISRDNAKNTVYLQMNRLKPEDTAVYYFAARYRSRYDYYYDRDYWGQGTQVTVSS	low polyreactivity
